Target: recombinant soluble tetrameric neuraminidase (tetNA) (Staphylothermus marinus | influenza A virus A/Belgium/2009 (H1N1, 2009 pandemic))
Experiment: SEC

recombinant soluble tetrameric neuraminidase (tetNA) (enzyme)
stoichiometry N: 4

— PMC4829898
